From publication PMC12501291, “Cancer-associated fibroblasts expressing FSTL3 promote vasculogenic mimicry formation and drive colon cancer malignancy” (Cell Death & Disease, 2025)

Biological target: T1, FSTL3-FC (biotin) (UniProt O95633, biotin)
T1 construct: FSTL3 gene fused with a human Fc fragment in pCDNA3.4; also called biotinylated FSTL3-FC; source: 293F cells, transfected, purified (Protein A), biotinylated, ultrafiltration; made by SGE BIOTECH
Test: ELISA; sandwich ELISA with biotinylated FSTL3-FC, aFSTL3 and Activin A-mFC; in vitro
Settings: both partners purified

T1 sequence (O95633 27-263): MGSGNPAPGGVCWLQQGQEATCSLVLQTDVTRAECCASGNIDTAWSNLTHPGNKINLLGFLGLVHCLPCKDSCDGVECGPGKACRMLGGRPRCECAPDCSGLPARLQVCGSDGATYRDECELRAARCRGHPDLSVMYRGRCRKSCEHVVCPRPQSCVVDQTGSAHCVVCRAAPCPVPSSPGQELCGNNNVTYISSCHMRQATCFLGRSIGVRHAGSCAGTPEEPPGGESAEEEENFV

B1: FSTL3-targeting antibodies (aFSTL3) (antibody, V domains shown)
VH: EVQLQQSAAELARPGASVKMSCKASGYSFTTYTMHWVKQRPGQGLEWIGYIHPSSGYTDHIQKFKDKTILTADKSSSTAYMQLNSLTSEDSAVYYCARLDYGYWGQGTTLTVSS
VL: DILMTQTPLSLPVSLGDQASISCRSSQSIVHSNGNTYLEWYLQKPGQSPKLLIYKVSNRFSGVPDRFTGSGSGTDFTLKISRVEAADLGVYYCFQSSHIPPTFGGGTKLEIK
notes: cloned into the PTT5-human IgG1 CH vector; cloned into the PTT5-human kappa CL vector; Human IgG1 CH, human kappa CL; source: 293F cells, transfected, purified (Protein A); made by SGE BIOTECH
binding result: binds
